The text below walks through data of article PMC6366424, “Development of a novel, high-affinity ssDNA trypsin inhibitor”.

What all share (conditions): protein: commercial
Series [1] has as its target T1, bovine trypsin (Bos taurus (bovine), UniProt P00760 24-246). Kind of series: enzyme inhibition (mixed mode); BAPNA, TAAB, 37 C; ELISA/pull-down: PBS pH 7.4, 5 mM MgCl2, 10 mM KCl, 0.01% Tween20, RT; SPR and inhibition (TAAB): 0.1 M Tris pH 7.5, 150 mM NaCl, 5 mM CaCl2, 10 mM KCl, 5 mM MgCl2, 0.02% Tween 20; inhibition at 37 C (full-length aptamer screen in selection buffer at RT).

For series [2], the target named is T1, bovine trypsin. The series can be described thus: SPR; kon 1.03e6 M-1s-1, koff 3.15e-3 s-1; TAAB; ELISA/pull-down: PBS pH 7.4, 5 mM MgCl2, 10 mM KCl, 0.01% Tween20, RT; SPR and inhibition (TAAB): 0.1 M Tris pH 7.5, 150 mM NaCl, 5 mM CaCl2, 10 mM KCl, 5 mM MgCl2, 0.02% Tween 20; inhibition at 37 C (full-length aptamer screen in selection buffer at RT). (In general: In SPR one partner is held on a chip, and binding of the other changes the refractive index at the surface.)

The target of series [3] is T1, bovine trypsin. Kind of series: bead pull-down; ELISA/pull-down: PBS pH 7.4, 5 mM MgCl2, 10 mM KCl, 0.01% Tween20, RT; SPR and inhibition (TAAB): 0.1 M Tris pH 7.5, 150 mM NaCl, 5 mM CaCl2, 10 mM KCl, 5 mM MgCl2, 0.02% Tween 20; inhibition at 37 C (full-length aptamer screen in selection buffer at RT). (An ELISA detects its analyte on a solid surface through an enzyme-linked reagent.)

T1 sequence (P00760 24-246): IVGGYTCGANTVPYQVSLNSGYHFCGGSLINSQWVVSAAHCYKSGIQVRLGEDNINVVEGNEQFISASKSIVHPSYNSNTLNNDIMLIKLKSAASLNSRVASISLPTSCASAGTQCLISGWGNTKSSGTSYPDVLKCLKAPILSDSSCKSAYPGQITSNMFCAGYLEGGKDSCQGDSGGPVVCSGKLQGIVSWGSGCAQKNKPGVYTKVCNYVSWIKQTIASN

B1: T24 (ssDNA)
DNA: CATGCTTCCCCAGGGAGATGGGTGTGAGGTTAGTTTGCGGGAACTAGAATTCCTGGCAAAGGGGGGCCTGGAGGAACATGCGTCGCAAAC
As usually defined, the Ki is the dissociation constant of the complex between target and ligand, obtained from inhibition or displacement. A higher Ki goes with a looser hold on the target. The term Kd denotes the equilibrium constant for the complex coming apart. Molecule B1 showed a Ki in series [1] of 176 ± 16 nM. Besides, binding in series [2] was characterised by a dissociation constant (Kd) of 3.06 nM.

B2: T21 (ssDNA)
DNA: CATGCTTCCCCAGGGAGATGGGTGTGGGGTTAGGTCACTTTATGGTTGGTTCCATTGTGTCAGGGAGCCGGGAGGAACATGCGTCGCAAAC
For the molecule B2, the binding result in series [3] is given as “binds”.

B3: T59 (ssDNA)
DNA: CATGCTTCCCCAGGGAGATGGGTGTGAGGTTAGTTTGCGGTCCTGGCAAAGGGGGGCCTGGAGGAACATG
B3 came in with a Ki in series [1] of 475 ± 48 nM.

B4: T22 (ssDNA)
DNA: CATGCTTCCCCAGGGAGATGGGTGTGAGGTTAGGAAATCTGTGTTGAACACTGCTTTCAGGGGGCTTGGGAGGAACATGCGTCGCAAAC
Consider B4, for which, in series [3], the binding result is “binds”.
